What was measured:
[1] = target: T1, human IL-18 (human, UniProt Q14116 37-193); test: cell-based or functional assay
T1 sequence (looked up): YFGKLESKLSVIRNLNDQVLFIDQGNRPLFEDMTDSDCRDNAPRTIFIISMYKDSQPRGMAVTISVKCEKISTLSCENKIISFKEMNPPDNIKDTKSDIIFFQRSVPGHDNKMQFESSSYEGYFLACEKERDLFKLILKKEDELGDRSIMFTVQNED

[2] = target: T1, human IL-18; test: method not given; the same paragraph names BIAcore and FORTEbio as possible methods and mentions 25 C

IL-6 gene expression in IL-18 stimulated ex-vivo human whole blood (Affymetrix microarray), IL-18 50 ng/ml + H1L2 1 ug/ml vs IL-18 alone [1]: 7 fold decrease
IRS2 gene expression in IL-18 stimulated ex-vivo human whole blood (microarray), IL18+H1L2 vs IL18 alone [1]: 1.4 fold increase
JAK2 gene expression in IL-18 stimulated ex-vivo human whole blood (microarray), IL18+H1L2 vs IL-18 alone [1]: 2.1 fold decrease
MCP-1 gene expression in IL-18 stimulated ex-vivo human whole blood (microarray), IL18+H1L2 vs IL18 alone [1]: 2.6 fold decrease
MCP-4 gene expression in IL-18 stimulated ex-vivo human whole blood (microarray), IL18+H1L2 vs IL18 alone [1]: 2.5 fold decrease
PPAR gamma gene expression in IL-18 stimulated ex-vivo human whole blood (microarray), IL18+H1L2 vs IL18 alone [1]: 1.7 fold increase
SOCS3 gene expression in IL-18 stimulated ex-vivo human whole blood (microarray), IL18+H1L2 vs IL-18 alone [1]: 1.9 fold decrease
STAT3 gene expression in IL-18 stimulated ex-vivo human whole blood (microarray), IL18+H1L2 vs IL-18 alone [1]: 1.6 fold decrease
Kd [2]: 0.0303 nM
B1: H1L2 (SEQ ID NO:7 and SEQ ID NO:11) (antibody, human IgG1, kappa, V domains shown)
VH: QVQLVQSGAEVKKPGASVKVSCKVSGEISTGYYFHWVRQAPGKGLEWMGRIDPEDDSTKYAERFKDRVTMTEDTSTDTAYMELSSLRSEDTAVYYCTTWRIYRDSSGRPFYVMDAWGQGTLVTVSS
VL: DIQMTQSPSSVSASVGDRVTITCLASEDIYTYLTWYQQKPGKAPKLLIYGANKLQDGVPSRFSGSGSGTDYTLTISSLQPEDFATYYCLQGSKFPLTFGQGTKLEIKR
notes: also called anti-IL-18 antibody H1L2

— US20120308564A1 (published 2012)
